B1: anti-TLR3 monoclonal antibody 34A3 (antibody, V domains shown)
VH: EIQLQQSGPELVKPGASVKVSCKASGYVFTTYSIYWVKQSHGKSLEWIGYIDPYNGDTSYNQKFKGKATLTVDKSSSTAYMHLNSLTSEDSTVYYCAREGNYYGYFDYWGQGTTLTVS
VL: QIVLTQSPALMSASPGEKVTMTCSASSSVSYMFWYQQKPRSSPKPWIYLTSNLASGVPARFSGSGSGTSYSLTISSMEAEDAATYYCQQWTGNPPTFGGGTKLEIK
B2: anti-TLR3 monoclonal antibody 29H3 (antibody, V domains shown)
VH: DVQLQESGPDLVKPSQSLSLTCTVTGYSITSGYSWHWIRQFLGNKLEWMGYIHYSGITNYNPSLRSRISFTRDTSKNQFFLQLNSVTTEDTATYYCARDGYYGMDYWGQGTSVTVS
VL: DIVMTQSQKFMSTSVGDRVSITCKASQNVRTSVAWYQQKPGQSPKALIYLASNRHTGVPDRFTGSGSGTDFTLTVSNIQSEDLADYFCLQHWNYPYTFGGGTKLEIK
notes: also called 29H3.7; CNCM I-4187
B3: anti-TLR3 monoclonal antibody 23C8 (antibody, V domains shown)
VH: EVQLQQSGPELVKPGASVKISCKASGYSFTGYFMHWVKQSHVKSLEWIGRINPYNGATSYNQNFKDKASLTVDKSSSTSYMELHSLTSEDSAVYYCVRDDGGNYPFDYWGQGTTLTVS
VL: DIQMTQSPASLSASVGETVTITCRASENIYSYLAWYQQKQGKSPQLLVYYAKTLAEGVPSRFSGSGTGTQFSLKINSLQPEDFGSYYCQHHYGTPYTFGGGTKLEIK
B4: anti-TLR3 monoclonal antibody 28F11 (antibody, V domains shown)
VH: EVQLQQSGPELVKPGASVKISCKASGYSFTGYYIHWVKQSHVKSLEWIGRINPYYGATSYNQNFKDKANLTVDKSSSTAYMELHSLTSDDSAVYYCARSTKLGYLDYWGQGTTLTVS
VL: DIQMTQSPASLSASVGETVTITCRASENIYSNLAWYQQKQGKSPQLLIYNAKTLAEGVPSRFSGSGSGTQYFLKINSLQPEDFGSYYCQHHYGTPFTFGGGTKLEIK

Columns and labels:
[1] = target: recombinant human His-tagged TLR3 extracellular domain recombinant protein (R&D systems, #1487-TR-050) (human) (UniProt O15455); assay: SPR (Biacore T100), rhTLR3 immobilised on CM5 chip, antibody in solution, bivalent affinity, pH 7.2, mean of 2 or 3 experiments
[2] = target: recombinant human His-tagged TLR3 extracellular domain recombinant protein (R&D systems, #1487-TR-050) (human) (UniProt O15455); assay: SPR (Biacore T100), rhTLR3 immobilised on CM5 chip, antibody in solution, bivalent affinity, pH 5.6, mean of 2 or 3 experiments
[3] = target: T1, human TLR3 expressed in cells (293T cells stably transfected with pUNO-hTLR3); endogenous TLR3 of human … (human, UniProt O15455 24-904); assay: cell-based or functional assay
[4] = target: T2, recombinant human His-tagged TLR3 extracellular domain recombinant protein (R&D systems, #1487-TR-050) (human, UniProt O15455 24-704); assay: ELISA, His-tagged rec TLR3 (reference: His-tagged rec TLR4) on Ni-NTA plates, hybridoma supernatant
T2 construct: Bought protein; also called recombinant human TLR3; rhTLR3; not shown: His tag

[5] = target: T1, human TLR3 expressed in cells (293T …); assay: cell-based or functional assay; remark: listed apart in the source

Molecule	Kd [1] [nM]	Kd [2] [nM]	IC50 of inhibition of luciferase expression, polyAU 100 µg/ml [3] [µg/mL]	ratio of DO obtained in TLR3 ELISA to DO obtained in TLR4 ELISA [4]	IC50 of inhibition of luciferase expression in 293-huTLR3 cells, polyAU 300 µg/ml [5] [µg/mL]
anti-TLR3 antibody TLR3.7 (eBiosciences)	45	9	–	–	–
B1	–	–	< 5	–	–
B2	–	–	–	> 10	–
B3	–	–	< 5	> 10	1.83
B4	–	–	–	> 10	5.56

From patent US20120034232A1 (INNATE PHARMA, published 2012)
